From patent publication US20250017964A1, “ENGINEERING OR INDUCING PDGF AND/OR PDGFR SIGNALING TO ENHANCE NK CELL THERAPY” (City of Hope, priority 2021, published 2025) come the findings set out here.

In test [1] the test system is PDGFRβ expression in human NK cells. As to the kind of experiment: Cytokine-induced PDGFRβ expression in purified human NK cells, flow cytometry. The class given is cell-based. As to conditions: cytokine 10 ng/ml, 24 h; IL-15 effect dose- and time-dependent. The text has this:
Data shown are the percentages of PDGFRβ^+ NK cells among total NK cells (n=5). […] Bar=20 μm. […] Data represent three independent experiments. Data shown are means SD.
(§1) FIGS. 7A-7F. […] Data shown are representative histograms and mean fluorescence intensity (MFI) of PDGFRα. […] Expression levels of PDGFRβ were examined by flow cytometry (n=6). […] Data shown are the percentages of PDGFRβ^+ NK cells among total NK cells (n=5). […] Data shown are representative histograms with MFI of PDGFRβ expression. (F) Expression levels of PDGFRβ on NK cells from IL-15 transgenic (Tg) mice were determined by flow cytometry. Data shown are representative histograms. Data represent three independent experiments.
NK cells were cultured in RPMI 1640 with 10% heat-inactivated FBS (Gibco) at 37° C. in a 5% CO2 humidified incubator. For NK cell transduction, PDGFRB cDNA ORF clone (Cat: HG10514-G) was purchased from Sino Biological and cloned into pCDH-CMV-MCS-EF1-copGFP lentivirus vector (System Biosciences). To produce lentivirus, we transfected the lentiviral transfer vector DNA, together with psPAX2 packaging (Addgene) and pMD2.G envelope plasmid DNA (Addgene), into HEK293T cells; using a polyethyenimine (PEI) transfection protocol (Polysciences). Concentrated lentivirus was added to primary NK cells cultured in RPMI 1640 medium supplemented with 10% FCS and 10 jig/mL polybrene with 2,000×g centrifugation for 2 h. […]
(A flow cytometer gives signals particle by particle.)

Test [2] deals with murine NK cells. As to the kind of experiment: PDGFRβ expression in murine splenic NK cells, flow cytometry. In kind it is cell-based, mouse. Conditions: splenic NK cells of C57BL/6 mice, mouse cytokines 10 ng/ml, 24 h. On the procedure:
as §1
Mouse NK cells were isolated from the spleen of C57BL/6J or IL-15 transgenic mice, using the EasySep Mouse NK Cell Isolation Kit ([…] Technologies) as previously described (11).
Cells were stained with the indicated cell-surface markers and/or fixed/permeabilized using a Fixation/Permeabilization Kit (eBioscience). For intracellular staining of IFN-γ and PDGF-D, 5 μg/ml Brefeldin A (BioLegend) was added for 4 h before cell harvest. Intracellular staining of Ki67 was performed by fixing and permeabilizing with the Foxp3/Transcription Factor Staining Kit (eBioscience). […] Data were analyzed using NovoExpress software (Agilent Technologies).

B1: IL-12: recombinant human IL-12 p70 (200-12); recombinant murine IL-12 in the mouse NK cell test (protein, UniProt P29459 23-219; P29460 23-328, looked up)
Interleukin-12 subunit alpha: RNLPVATPDPGMFPCLHHSQNLLRAVSNMLQKARQTLEFYPCTSEEIDHEDITKDKTSTVEACLPLELTKNESCLNSRETSFITNGSCLASRKTSFMMALCLSSIYEDLKMYQVEFKTMNAKLLMDPKRQIFLDQNMLAVIDELMQALNFNSETVPQKSSLEEPDFYKTKIKLCILLHAFRIRAVTIDRVMSYLNAS
Interleukin-12 subunit beta: IWELKKDVYVVELDWYPDAPGEMVVLTCDTPEEDGITWTLDQSSEVLGSGKTLTIQVKEFGDAGQYTCHKGGEVLSHSLLLLHKKEDGIWSTDILKDQKEPKNKTFLRCEAKNYSGRFTCWWLTTISTDLTFSVKSSRGSSDPQGVTCGAATLSAERVRGDNKEYEYSVECQEDSACPAAEESLPIEVMVDAVHKLKYENYTSSFFIRDIIKPDPPKNLQLKPLKNSRQVEVSWEYPDTWSTPHSYFSLTFCVQVQGKSKREKKDRVFTDKTSATVICRKNASISVRAQDRYYSSSWSEWASVPCS
modifications: p70 heterodimer
notes: recombinant human IL-12 p70 (200-12); recombinant murine IL-12 in the mouse NK cell test
For B1, the PDGFRβ expression result in test [1] is given as “ineffective”. The “PDGFRβ expression in murine NK cells” value in test [2] is “did not express PDGFRβ”.
